B1: bioBFDAZ_at (bioB_at) probe (dsDNA)
DNA 1: CTCTCTTGAGGAGGCAAAAATTATCTATAATTTGCCATTTAACGACCTGC
DNA 2: GCAGGTCGTTAAATGGCAAATTATAGATAATTTTTGCCTCCTCAAGAGAG
B2: bioYB_pd1 probe (dsDNA)
DNA 1: GATTCCCGGATAATTATCTATAAACCTAATTGCCAG
DNA 2: CTGGCAATTAGGTTTATAGATAATTATCCGGGAATC
B3: bioBFDAGC_pd probe (dsDNA)
DNA 1: GGCGCTGACCGTTTTATAGATACTTCCACATGAGGC
DNA 2: GCCTCATGTGGAAGTATCTATAAAACGGTCAGCGCC
B4: cold bioBFDAGC_pd probe (dsDNA)
DNA 1: GGCGCTGACCGTTTTATAGATACTTCCACATGAGGC
DNA 2: GCCTCATGTGGAAGTATCTATAAAACGGTCAGCGCC
B5: bioR1_pd probe (dsDNA)
DNA 1: GGTGCAGCATGAATTATCTATAATTCATGAAACACG
DNA 2: CGTGTTTCATGAATTATAGATAATTCATGCTGCACC
B6: bioYB_pd2 probe (dsDNA)
DNA 1: CAAAGCCTTCGTAATTATAGATAGACTCGATACCTATC
DNA 2: GATAGGTATCGAGTCTATCTATAATTACGAAGGCTTTG

How the values were obtained:
BioR2 [1] = target: T1, BioR2 (Paracoccus denitrificans PD1222, UniProt A1B662 1-221); experiment: EMSA; ~0.2 pmol DIG-labeled probe with BioR (10-20 pmol BioR2 in 15 uL, Fig. 6) in Roche binding buffer, 15 min, room temperature; native 7% PAGE; salt and pH of binding buffer not stated (protein in PBS pH 7.4, 10% glycerol); details: protein: recombinant; tags: 6xHis (pET28a); chain copies: 2; label: digoxigenin; blunt
T1 sequence: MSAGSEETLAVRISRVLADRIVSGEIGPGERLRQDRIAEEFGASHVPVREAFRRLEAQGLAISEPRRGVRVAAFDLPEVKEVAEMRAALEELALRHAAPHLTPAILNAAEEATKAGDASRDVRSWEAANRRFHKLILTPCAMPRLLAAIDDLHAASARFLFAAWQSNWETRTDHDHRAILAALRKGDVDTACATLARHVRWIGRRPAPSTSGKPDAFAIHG

BioR2 [2] = target: T1, BioR2; experiment: EMSA; pimeloyl-ACP (no effect); ~0.2 pmol DIG-labeled probe with BioR (10-20 pmol BioR2 in 15 uL, Fig. 6) in Roche binding buffer, 15 min, room temperature; native 7% PAGE; salt and pH of binding buffer not stated (protein in PBS pH 7.4, 10% glycerol); details: protein: recombinant; tags: 6xHis (pET28a); chain copies: 2; label: digoxigenin; blunt
BioR2 [3] = target: T1, BioR2; experiment: competition; cold probe 10, 20, 50 pmol vs 0.2 pmol DIG-bioBFDAGC; ~0.2 pmol DIG-labeled probe with BioR (10-20 pmol BioR2 in 15 uL, Fig. 6) in Roche binding buffer, 15 min, room temperature; native 7% PAGE; salt and pH of binding buffer not stated (protein in PBS pH 7.4, 10% glycerol); details: protein: recombinant; tags: 6xHis (pET28a); chain copies: 2; blunt

| Binder | binding result (BioR2 [1]) | also measured |
| --- | --- | --- |
| B1 | binds |  |
| B2 | binds |  |
| B3 |  | binding result (BioR2 [2]): binds |
| B4 |  | binding result (BioR2 [3]): binds |
| B5 | binds |  |
| B6 | binds |  |

Reference: PMC4554459, “Paracoccus denitrificans possesses two BioR homologs having a role in regulation of biotin metabolism”
